Common to all, as to experiment: SPR (Carterra LSA), antibody immobilised, Fc fusion at 300 or 600 nM
One experiment addresses T1, human CD300D-Fc (human).
T1 construct: hIgG1-Fc fusion; the entry is the whole fusion chain
T1 chain: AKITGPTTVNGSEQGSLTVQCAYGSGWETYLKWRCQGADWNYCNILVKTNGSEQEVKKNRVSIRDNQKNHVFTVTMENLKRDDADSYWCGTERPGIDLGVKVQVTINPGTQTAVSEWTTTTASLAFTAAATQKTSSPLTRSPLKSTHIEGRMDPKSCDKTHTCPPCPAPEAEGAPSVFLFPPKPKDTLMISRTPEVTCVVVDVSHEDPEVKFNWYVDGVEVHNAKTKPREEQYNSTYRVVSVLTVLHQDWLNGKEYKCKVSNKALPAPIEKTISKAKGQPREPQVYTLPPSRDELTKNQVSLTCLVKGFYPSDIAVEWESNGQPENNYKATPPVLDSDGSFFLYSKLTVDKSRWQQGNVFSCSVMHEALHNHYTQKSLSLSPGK
As to the method: (§1) Binding of mouse anti-CD300LB IgG1 antibodies of the present disclosure to human and murine CD300 orthologs were evaluated by surface plasmon resonance (SPR) using a Carterra LSA instrument (Carterra, Salt Lake City, UT). […] A HC200M sensor chip (Carterra) was activated using the single channel flow cell with a 7-minute injection of a 1:1:1 mixture of 100 mM MES pH 5.5, 100 mM sulfo-NHS, 400 mM EDC (all reconstituted in MES pH 5.5; 100 μL of each mixed in vial immediately before running assay). After switching to the multi-channel array flow cell, the antibodies were injected over the activated chip in a 96-spot array for 10 minutes. The remaining unconjugated active groups on the chip were then blocked by injecting 1M Ethanolamine pH 8.5 (Carterra) for 7 minutes using the single channel flow cell. After priming with running buffer (HBS-TE, Carterra) with 0.5 mg/ml BSA (Sigma), the immobilized anti-CD300LB antibodies were tested for their ability to bind human and mouse recombinant CD300LB extracellular domains. Human CD300 family members and mouse CD300A were hIgG1-Fc fusions, while mouse CD300LB, mouse CD300C, mouse CD300D, and mouse CD300E were mouse IgG2a-Fc fusions (R&D Systems). Binding was assessed by injecting each analyte over the entire antibody array using the single channel flow cell. CD300 analytes were diluted to 300 nM or 600 nM in running buffer and injected in series without regeneration. Two or three buffer blanks were run between each mouse or human ortholog, respectively. Data were processed and analyzed using NextGenKIT high-throughput kinetics analysis software (Carterra).
(§2) Results of anti-CD300LB antibody binding to human CD300 family members is provided below in Table 7.

The next experiment concerns the target T2, human CD300E-Fc (human).
T2 construct: hIgG1-Fc fusion; the entry is the whole fusion chain
T2 chain: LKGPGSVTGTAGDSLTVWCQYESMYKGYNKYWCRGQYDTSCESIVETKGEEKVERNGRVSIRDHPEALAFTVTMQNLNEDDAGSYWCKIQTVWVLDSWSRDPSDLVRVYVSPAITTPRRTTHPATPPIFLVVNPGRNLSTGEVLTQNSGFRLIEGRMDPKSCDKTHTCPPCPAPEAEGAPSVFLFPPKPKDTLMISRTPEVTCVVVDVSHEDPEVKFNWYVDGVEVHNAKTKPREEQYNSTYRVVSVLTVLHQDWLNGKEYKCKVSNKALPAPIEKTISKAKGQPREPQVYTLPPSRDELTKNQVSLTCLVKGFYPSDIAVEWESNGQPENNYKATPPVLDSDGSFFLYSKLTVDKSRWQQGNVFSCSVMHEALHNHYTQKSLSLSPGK
The protocol:
as §1, §2

The target of another experiment is T3, human CD300A-Fc (human).
T3 construct: hIgG1-Fc fusion; the entry is the whole fusion chain
T3 chain: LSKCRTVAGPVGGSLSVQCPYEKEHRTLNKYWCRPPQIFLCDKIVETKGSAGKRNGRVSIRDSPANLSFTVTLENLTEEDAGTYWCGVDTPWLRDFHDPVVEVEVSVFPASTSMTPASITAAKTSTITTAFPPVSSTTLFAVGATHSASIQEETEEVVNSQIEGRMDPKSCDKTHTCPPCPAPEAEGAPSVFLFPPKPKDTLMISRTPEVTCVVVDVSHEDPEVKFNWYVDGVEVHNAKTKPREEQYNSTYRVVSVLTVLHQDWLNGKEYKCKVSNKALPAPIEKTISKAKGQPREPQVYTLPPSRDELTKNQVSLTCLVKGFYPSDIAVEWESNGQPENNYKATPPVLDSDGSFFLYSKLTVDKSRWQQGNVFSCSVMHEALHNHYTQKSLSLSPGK
As to the method: as §1, §2

In another experiment the target is T4, human CD300C-Fc (human).
T4 construct: hIgG1-Fc fusion; the entry is the whole fusion chain
T4 chain: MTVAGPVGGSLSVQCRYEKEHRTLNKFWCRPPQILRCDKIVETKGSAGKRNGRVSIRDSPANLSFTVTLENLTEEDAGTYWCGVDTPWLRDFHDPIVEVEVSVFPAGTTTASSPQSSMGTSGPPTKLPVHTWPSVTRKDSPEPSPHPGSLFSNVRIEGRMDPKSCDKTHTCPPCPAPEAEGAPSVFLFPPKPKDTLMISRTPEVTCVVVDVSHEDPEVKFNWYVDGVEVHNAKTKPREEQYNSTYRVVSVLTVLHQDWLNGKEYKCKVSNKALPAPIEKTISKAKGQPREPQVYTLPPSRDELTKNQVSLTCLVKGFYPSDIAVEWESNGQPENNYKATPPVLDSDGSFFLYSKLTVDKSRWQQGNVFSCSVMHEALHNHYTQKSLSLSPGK
The protocol:
as §1, §2

The target of the next experiment is T5, human CD300F-Fc (human).
T5 construct: hIgG1-Fc fusion; the entry is the whole fusion chain
T5 chain: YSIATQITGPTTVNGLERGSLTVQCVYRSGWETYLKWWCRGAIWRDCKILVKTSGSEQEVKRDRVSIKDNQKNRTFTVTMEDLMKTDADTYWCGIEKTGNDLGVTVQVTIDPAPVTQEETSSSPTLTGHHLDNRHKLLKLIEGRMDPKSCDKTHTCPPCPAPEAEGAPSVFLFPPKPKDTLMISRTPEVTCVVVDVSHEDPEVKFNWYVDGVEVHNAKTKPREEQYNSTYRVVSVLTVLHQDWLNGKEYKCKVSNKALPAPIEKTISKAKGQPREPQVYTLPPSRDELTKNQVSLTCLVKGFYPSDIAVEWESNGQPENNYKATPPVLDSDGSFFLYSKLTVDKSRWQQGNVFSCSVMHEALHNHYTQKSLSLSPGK
As to the method: as §1, §2

The record followed here is US20240254227A1 (Alector, published 2024).

B1: anti-CD300LB antibody CD-02 (antibody, V domains shown)
VH: QVQLQQPGAELVRPGSSVKLSCQASGYTFTNYWMHWVRQRPIQGLEWIGNIDPSDSETHYNQKFKDRATLTVDKSSSTAYMQLSSLTSEDSAVYYCARSGVYDDEGGDYWGQGTTLTVSS
VL: ENVLTQSPAIMSASPGEKVTMTCSASSSVSYIHWYQQKSSTSPKLWIYDTSKLASGVPGRFSGSGSGNSYSLTISSMETEDVATYYCFQGSGYPLTFGAGTKLELK
For the molecule B1, the “SPR binding (control subtracted)” value with human CD300D-Fc was 0.76; with human CD300E-Fc, 0.62; in the experiment with human CD300A-Fc, 0.735; in the experiment with human CD300C-Fc, 0.425; in the experiment with human CD300F-Fc it was 0.87.

B2: anti-CD300LB antibody CD-05 (antibody, V domains shown)
VH: QVQLVQSGAEVKKPGASVKVSCKASGYTFSRYYINWVRQAPGQGLEWMGWINPNSGGTNYAQKFQGRVTMTRDTSTSTVYMELSSLRSEDTAVYYCTTDQLRFGKTGPYYGMDVWGQGTTVTVSS
VL: DIQMTQSPSSLSASVGDRVTITCRASQNIGTYLNWYQQKPGKAPKLLIYAASSLQSGVPSRFSGSGSGTDFTLTISSLQPEDFATYYCQQSYSDTLTFGGGTKVEIK
Consider B2, for which the “SPR binding (control subtracted)” value with human CD300D-Fc was 0.115; with human CD300E-Fc, 0.195; with human CD300A-Fc, 0.24; in the experiment with human CD300C-Fc, 0.06; with human CD300F-Fc, 0.045.

B3: anti-CD300LB antibody CD-03 (antibody, V domains shown)
VH: EVQLQQSGPELVKPGASVKISCKASGYTFTDYYINWVRQSHGKSLECIGDINPNNGGTNYNQKFKGKATLTVDRSSNTAYMEFRSLTFDDSALYYCAAEGAYWGQGTLVTVSA
VL: not shown
For the molecule B3, the “SPR binding (control subtracted)” value with human CD300D-Fc worked out at 0.4; in the experiment with human CD300E-Fc, 0.18; with human CD300A-Fc, 0.095; with human CD300C-Fc it was 0.165; with human CD300F-Fc it was 0.42.

B4: anti-CD300LB antibody CD-01 (antibody, V domains shown)
VH: RVQLQQSGAELVRPGASVTLSCKASGFTFTDFEMHWVKKTPVHGLEWIGAIDPESGNTAYNQKFRGKATLTADKSSSTAYMELRYLTSEDSAVYYCTPLISGADYWGQGTTLTVSS
VL: DVVMTQSPLSLPVSLGDQASISCRSSQSLVHSDGNTYLYWYLQKPGQSPKLLIYKVSNRFSGVPDRFSGSGSGTDFTFKISRVGAEDLGVYFCSQSTHVPWTFGGGTKLEII
For the molecule B4, the “SPR binding (control subtracted)” value was 0.575 with human CD300D-Fc; -0.105 with human CD300E-Fc; 0.175 with human CD300A-Fc; 0.805 with human CD300C-Fc; 0.075 with human CD300F-Fc.
